Measurements taken from the supplement of paper PMC10724198.

Assays:
[1] = system: Saccharomyces cerevisiae; assay: protein stability index of tFT-peptide fusion in wild type (PSI (0-1 scale)); higher = more stable (slower turnover); settings: genetic background: wild type
Method: (§1)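 MPS profiling in S. cerevisiae of two library types built from selected 12-aa C-degron peptides (IN1, IN2, LN1, LN3, VN2, R1-R5, W1-W3, Atg1 and Rpa12 C-termini): saturation mutagenesis libraries and C-terminal +1 capping libraries (13 aa). Each peptide is fused to the C-terminus of a sfGFP-mCherry timer, after a GGGS linker. Cells are FACS-sorted into 8 mCherry/sfGFP bins and sequenced. PSI runs from 0 (unstable) to 1 (stable), measured once in wild type and in the das1Δ or doa10Δ background.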

[2] = system: Saccharomyces cerevisiae; assay: protein stability index of tFT-peptide fusion in deletion strain of DAS1 (PSI (0-1 scale)); higher = more stable (slower turnover)
Method: as §1
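Throughout, for protein stability index of tFT-peptide fusion in deletion strain of DAS1: PSI is a weighted mean of each variant's read distribution over the sorted stability bins, computed only for variants having over 10 reads in total.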
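Throughout, for protein stability index of tFT-peptide fusion in wild type: PSI derived as read-weighted mean over the 8 sorting bins, only variants exceeding 10 total reads kept, mCherry placed adjacent to the peptide and sfGFP distal.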

Row | Sequence | protein stability index [1] | protein stability index [2]
1 | FSMRWAFRYWVN | 0.115 | 0.58
2 | FSMRWLFRYWVN | 0.0905 | 0.573
3 | FSMRWSFRYWVN | 0.0724 | 0.544
4 | FSMRWTDRYWVN | 0.0929 | 0.568
5 | FSMRWTFRFWVN | 0.052 | 0.419
6 | FSMRWTFRIWVN | 0.0523 | 0.288
7 | FSMRWTFRSWVN | 0.272 | 0.515
8 | FSMRWTFRYHVN | 0.035 | 0.472
9 | FSMRWTFRYNVN | 0.214 | 0.568
10 | FSMRWTFRYVVN | 0.117 | 0.496
11 | FSMRWTFRYWDN | 0.0861 | 0.554
12 | FSMRWTFRYWRN | 0.653 | 0.531
13 | FSMRWTFRYWVC | 0.0396 | 0.403
14 | FSMRWTFRYWVD | 0.46 | 0.467
15 | FSMRWTFRYWVNN | 0.137 | 0.558
16 | FSMRWTFRYWVNQ | 0.141 | 0.558
17 | FSMRWTFRYWVQ | 0.205 | 0.48
18 | FSMRWTFRYWVY | 0.0725 | 0.374
19 | FSMRWTFRYYVN | 0.0506 | 0.482
20 | FSMRWTHRYWVN | 0.0511 | 0.561
21 | FSMWWTFRYWVN | 0.077 | 0.444
22 | FSNRWTFRYWVN | 0.0838 | 0.617
23 | GKHKKGQKQKIN | 0.133 | 0.585

Row | Sequence | protein stability index [1] | protein stability index [2]
24 | GLIQPLPVQFLN | 0.0806 | 0.62
25 | HDKRNHLIKLLN | 0.077 | 0.581
26 | HKILRQKMNHQN | 0.168 | 0.683
27 | IVVYLSCVACIN | 0.0176 | 0.0302
28 | KKHAKGQKQKIN | 0.121 | 0.565
29 | KKHKKGPKQKIN | 0.175 | 0.603
30 | KKHKKGQAQKIN | 0.0853 | 0.605
31 | KKHKKGQKIKIN | 0.294 | 0.576
32 | KKHKKGQKQEIN | 0.591 | 0.589
33 | KKHKKGQKQKAN | 0.308 | 0.709
34 | KKHKKGQKQKIK | 0.634 | 0.553
35 | KKHKKGQKQKIL | 0.222 | 0.595
36 | KKHKKGQKQKIS | 0.101 | 0.607
37 | KKHKKGQKQMIN | 0.117 | 0.591
38 | KKHKKGQKVKIN | 0.225 | 0.615
39 | KKHKKGQLQKIN | 0.121 | 0.628
40 | KKHKKGQNQKIN | 0.191 | 0.625
41 | KKHKKQQKQKIN | 0.0595 | 0.59
42 | KLHKKGQKQKIN | 0.0703 | 0.612
43 | KTSCGYKFRTNN | 0.225 | 0.679
44 | LDKRNHLIKLLN | 0.137 | 0.599
45 | LEVYLSCVACIN | 0.0193 | 0.0737
46 | LKILDQKMNHQN | 0.648 | 0.691

Row | Sequence | protein stability index [1] | protein stability index [2]
47 | LKILRLKMNHQN | 0.171 | 0.65
48 | LKILRQIMNHQN | 0.244 | 0.693
49 | LKILRQKDNHQN | 0.664 | 0.666
50 | LKILRQKMNHQC | 0.184 | 0.635
51 | LKILRQKMNHSN | 0.231 | 0.674
52 | LKILRQKMNLQN | 0.221 | 0.666
53 | LKILRQKMNWQN | 0.286 | 0.661
54 | LKILRQKMYHQN | 0.249 | 0.658
55 | LKILRQLMNHQN | 0.219 | 0.665
56 | LKILRQPMNHQN | 0.658 | 0.68
57 | LKILRQWMNHQN | 0.184 | 0.693
58 | LKILRQYMNHQN | 0.242 | 0.675
59 | LKQLRQKMNHQN | 0.212 | 0.663
60 | LKSLRQKMNHQN | 0.202 | 0.681
61 | LLVYLSCVACIN | 0.0174 | 0.0429
62 | LRWRVGLWRGAS | 0.0917 | 0.682
63 | LSMRWTFRYWVN | 0.0756 | 0.531
64 | LVVHLSCVACIN | 0.0147 | 0.0251
65 | LVVYDSCVACIN | 0.368 | 0.468
66 | LVVYLNCVACIN | 0.0331 | 0.0265
67 | LVVYLPCVACIN | 0.119 | 0.202
68 | LVVYLSCNACIN | 0.0647 | 0.0655
69 | LVVYLSCVACINA | 0.0212 | 0.0343

Row | Sequence | protein stability index [1] | protein stability index [2]
70 | LVVYLSCVACINP | 0.0199 | 0.0332
71 | LVVYLSCVACIP | 0.0232 | 0.0442
72 | LVVYLSCVLCIN | 0.0221 | 0.141
73 | LVVYLSCVQCIN | 0.0151 | 0.0333
74 | LVVYLSGVACIN | 0.181 | 0.264
75 | LVVYLSIVACIN | 0.0584 | 0.0849
76 | LVVYLSSVACIN | 0.0245 | 0.0579
77 | LVVYLWCVACIN | 0.0141 | 0.0851
78 | LVYYLSCVACIN | 0.0126 | 0.0331
79 | LWILRQKMNHQN | 0.124 | 0.695
80 | MLIQPLPVQFLN | 0.0562 | 0.654
81 | NVVYLSCVACIN | 0.0156 | 0.0341
82 | PAKRNHLIKLLN | 0.131 | 0.618
83 | PALAASFWRVVG | 0.178 | 0.687
84 | PDCRNHLIKLLN | 0.136 | 0.673
85 | PDIRNHLIKLLN | 0.134 | 0.675
86 | PDKRNFLIKLLN | 0.112 | 0.61
87 | PDKRNHHIKLLN | 0.111 | 0.665
88 | PDKRNHIIKLLN | 0.132 | 0.57
89 | PDKRNHLEKLLN | 0.292 | 0.63
